The source of these data is patent US20170008933A1 (GlaxoSmithKline, published 2017).

In assay [1] the target is T1, human factor H (human, UniProt P08603 19-1231).
T1 construct: Immobilised on the chip in the SPR experiments; also called fH
The assay is described as follows: SPR against immobilised fH.

Assay [2] addresses T1, human factor H. The assay can be described thus: SPR. A general note: SPR reads the build-up and loss of mass on a sensor chip optically.

Positions count from the first letter of the chain named. Names and notes keep the numbering of the source.

T1 sequence (P08603 19-1231 limits assumed): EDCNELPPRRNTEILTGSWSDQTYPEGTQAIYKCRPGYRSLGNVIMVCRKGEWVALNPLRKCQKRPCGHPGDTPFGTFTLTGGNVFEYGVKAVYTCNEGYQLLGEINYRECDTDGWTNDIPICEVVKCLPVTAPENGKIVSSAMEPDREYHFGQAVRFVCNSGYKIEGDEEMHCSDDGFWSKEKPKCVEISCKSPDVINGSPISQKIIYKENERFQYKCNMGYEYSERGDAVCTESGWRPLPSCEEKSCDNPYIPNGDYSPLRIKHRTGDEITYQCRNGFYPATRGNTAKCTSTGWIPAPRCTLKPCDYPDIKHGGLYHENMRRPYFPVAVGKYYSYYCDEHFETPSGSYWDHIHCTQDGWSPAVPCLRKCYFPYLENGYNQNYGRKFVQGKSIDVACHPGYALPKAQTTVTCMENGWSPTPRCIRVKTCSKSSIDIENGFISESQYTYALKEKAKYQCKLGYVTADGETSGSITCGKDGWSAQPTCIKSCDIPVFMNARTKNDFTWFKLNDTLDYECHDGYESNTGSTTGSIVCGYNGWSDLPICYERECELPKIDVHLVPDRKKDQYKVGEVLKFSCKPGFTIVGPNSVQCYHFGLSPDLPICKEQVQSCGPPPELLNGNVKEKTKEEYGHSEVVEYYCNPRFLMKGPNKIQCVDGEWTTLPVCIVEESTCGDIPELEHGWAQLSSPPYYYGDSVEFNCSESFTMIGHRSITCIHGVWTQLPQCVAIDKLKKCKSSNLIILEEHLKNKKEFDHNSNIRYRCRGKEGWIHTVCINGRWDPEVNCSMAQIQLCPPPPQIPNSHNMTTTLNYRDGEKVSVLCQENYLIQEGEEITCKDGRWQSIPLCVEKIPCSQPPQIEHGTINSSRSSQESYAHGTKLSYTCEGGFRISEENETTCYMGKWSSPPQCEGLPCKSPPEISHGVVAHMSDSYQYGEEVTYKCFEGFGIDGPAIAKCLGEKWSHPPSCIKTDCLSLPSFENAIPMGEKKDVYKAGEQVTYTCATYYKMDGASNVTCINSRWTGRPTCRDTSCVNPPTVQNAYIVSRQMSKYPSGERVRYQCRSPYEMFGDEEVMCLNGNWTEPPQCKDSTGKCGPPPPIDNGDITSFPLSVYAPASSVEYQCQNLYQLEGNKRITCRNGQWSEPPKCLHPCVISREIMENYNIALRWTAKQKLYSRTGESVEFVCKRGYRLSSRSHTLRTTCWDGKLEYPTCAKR

B1: wild-type v2 fHbp (strain 2996) (other)
chain: VAADIGAGLADALTAPLDHKDKSLQSLTLDQSVRKNEKLKLAAQGAEKTYGNGDSLNTGKLKNDKVSRFDFIRQIEVDGQLITLESGEFQIYKQDHSAVVALQIEKINNPDKIDSLINQRSFLVSGLGGEHTAFNQLPDGKAEYHGKAFSSDDAGGKLTYTIDFAAKQGHGKIEHLKTPEQNVELAAAELKADEKSHAVILGDTRYGSEEKGTYHLALFGDRAQEIAGSATVKIGEKVHEIGIAGKQ
notes: Recombinant purified protein; The exact construct used in SPR is not spelled out; also called v2 w.t
In the case of B1, the binding result in assay [1] was “binds”.

B2: v2 fHbp mutant #2 (S58V) (other)
chain: B1 chain with S32V
notes: also called S32V
B2: the binding result in assay [1] was “binds”.

B3: v2 fHbp mutant #3 + 'E313A' (other)
chain: B1 chain with S32V, L123R, E240A
notes: also called S32V + L123R + E240A
For B3, the binding result in assay [2] is given as “no binding”.

B4: v2 fHbp combined mutant #2 + #12 (other)
chain: B1 chain with S32V, L123R, V124I, S125G, G126D, L127I, G128A
notes: also called mutant #23; S32V + L123-G128 RIGDIA
With B4, in assay [2], the “fold reduction of the SPR peak value” is around 8 fold.

B5: v2 fHbp mutant #4 (L149R) (other)
chain: B1 chain with L123R
notes: also called L123R
As to B5, the binding result in assay [1] is “binds”.

B6: v3 fHbp L149R mutant (L126R of SEQ ID NO: 17) (other)
chain: VAADIGTGLADALTAPLDHKDKGLKSLTLEDSIPQNGTLTLSAQGAEKTFKAGDKDNSLNTGKLKNDKISRFDFVQKIEVDGQTITLASGEFQIYKQNHSAVVALQIEKINNPDKTDSLINQRSFRVSGLGGEHTAFNQLPGGKAEYHGKAFSSDDPNGRLHYSIDFTKKQGYGRIEHLKTLEQNVELAAAELKADEKSHAVILGDTRYGSEEKGTYHLALFGDRAQEIAGSATVKIGEKVHEIGIAGKQ
notes: also called v3 equivalent of mutant #4
In the case of B6, in assay [2], the binding result is “binds”.

B7: v3 fHbp S58V mutant (S32V of SEQ ID NO: 17) (other)
chain: B6 chain with S32V, R126L
notes: also called v3 equivalent of mutant #2
Regarding B7, in assay [2], the “fold reduction of the SPR peak value against wild-type v3” value is around 2 fold.
